From patent US20240207405A1, “IL2 TETHERED TO ITS RECEPTOR IL2RBETA AND PORE-FORMING PROTEINS AS A PLATFORM TO ENHANCE IMMUNE CELL ACTIVITY” (The General Hospital Corporation, priority 2021, published 2024)

How the values were obtained:
PC-3 cells = format: cell-based, human
Description: Interleukins IL4, IL7, IL9, IL15 and IL21 belong to the same family as IL2, and use the same common IL2Rg. They all have their own private receptors, except for IL2 and IL15, which use IL2Rβ in addition to their own alpha receptors. […] Thus the entire cytoplasmic domain of IL21R was cloned then added Head-to-Tail to the C-terminal of IL2Rβ in the chimera CIRB. […] As shown herein, it was possible to emulate the activation signals from multiple cytokines that activate NK cells via different receptors by using only one ligand and a hybrid receptor.

NK92^CIRB21 cells [1] = assay: Growth of NK92^CIRB21 cells in the presence of lactate dehydrogenase inhibitor R-GNE140 (cell count); format: cell-based, human; conditions: total cell count, FIG. 11, read-out: IC50 of R-GNE140 for inhibiting growth of NK92^CIRB21 cells
Method: (§1) The ability of NK92^CIRB and NK92^CIRB21 cells to grow in the presence of the lactate dehydrogenase inhibitor R-GNE140 was tested. Cells were incubated with increasing concentrations of R-GNE140 and total number of cells were counted.

NK92^CIRB cells [2] = assay: Growth of NK92^CIRB cells in the presence of lactate dehydrogenase inhibitor R-GNE140 (cell count); format: cell-based, human; conditions: total cell count, FIG. 11, read-out: IC50 of R-GNE140 for inhibiting growth of NK92^CIRB cells
Method: as §1

NK92^CIRB21-icasp9 cells = assay: Killing of icasp9-expressing NK92 cells by dimerizer drug AP1093; format: cell-based, human
Method: (§2) L-Holin killing assays—Cells selected cell for L-Holin were tested in a 24 well plate using 32,000 cells per well. 24 hours later doxycycline was added at 1 μg/ml for 4-5 days. Cells selected for icasp9 were tested in a 24 well plate using 32,000 cells per well. 24 hours later dimerizer drug AP1093 was added at 2 or 10 nM for 4-5 days. Surviving cells were quantified using crustal violet assay as described in (Jounaidi et al, Cancer Research 2017).
Next, we examined whether high doses of AP1093 could completely kill NK92^CIRB21−icasp9 cells.

[3] = cited from earlier work
NK92^CIRB cells [4] = assay: L-holin killing of NK92^CIRB cells (doxycycline induction, cell count); format: cell-based, human; conditions: total cell count, FIG. 12
Method: The ability of L-holin to trigger death of NK92^CIRB cells and NK92^CIRB21 cells was tested. L-bolin expression was induced in NK92^CIRB cells and NK92^CIRB21 cells with doxycycline. Cells were washed to remove doxycycline and then cells were cultured for 13 days. Total number of cells were counted after 13 days of growth in the absence of doxycycline. Untreated cells were counted as a control. […] This sensitivity is consistent with the reliance of NK92^CIRB21 cells on mitochondria, which are lysed by L-holin during cell killing.

NK92^CIRB21 cells [5] = assay: L-Holin killing of NK92^CIRB21 cells (doxycycline induction, cell count); format: cell-based, human; conditions: NK92^CIRB21 cells expressing L-Holin, total cell count, FIG. 5B / FIG. 12
Method: NK92^CIRB21 pool selection—NK92^CIRB21 cells expressing L-Holin were selected with puromycin and NK92^CIRB21 cells expressing icasp9 and GFP were sorted by flow cytometry for GFP.
as §2
Mouse glioblastoma cell line GL261 was infected by a retrovirus expressing L-Holin. Clones were selected, L-Holin expression was induced with doxycycline, and cell viability was determined. […]
Expression of L-Holin in NK92^CIRB21+Holin cells was induced with doxycycline. Total number of cells were counted after doxycycline treatment. […] After 13 days of growth in the absence of doxycycline, total number of cells were counted. Untreated cells were counted as a control.
The ability of L-holin to trigger death of NK92^CIRB cells and NK92^CIRB21 cells was tested. […] Total number of cells were counted after 13 days of growth in the absence of doxycycline. Untreated cells were counted as a control. […]

glioblastoma GL261 cells = assay: L-Holin killing assay in GL261 clones (doxycycline induction, crystal violet); format: cell-based, mouse
Method: L-Holin GL261 and icasp9 GL261 clones were selected as single cells by extreme dilution in 96 well plates. Clones were grown and evaluated for their response to dox (L-Holin) or AP1093 (icasp9).
as §2
Mouse glioblastoma cell line GL261 was infected by a retrovirus expressing L-Holin. Clones were selected, L-Holin expression was induced with doxycycline, and cell viability was determined. Four clones were tested: 2 clones with high expression levels of L-Holin (Clone 1, Clone 5) and 2 clones with low expression levels of L-Holin (Clone 6, Clone 9).
We compared the ability of L-Holin to trigger cell death to that of icasp9 in GL261 cells. GL261 cells were infected by a retrovirus expressing L-Holin or a retrovirus expressing icasp9. Clones were selected, L-Holin expression was induced with doxycycline, and cell viability was determined. […]

## IL21: soluble interleukin of the IL2 family added to NK92^CIRB cells
PC-3 cells
  effect of soluble interleukin on cytotoxicity of NK92^CIRB against PC-3 cells: dramatically enhance cytotoxicity

## O=C1N[C@](c2ccc(N3CCOCC3)cc2)(c2ccsc2)CC(O)=C1Sc1ccccc1Cl [R-GNE140]
NK92^CIRB21 cells [1]
  IC50: 10.6 µM
NK92^CIRB cells [2]
  IC50: 4.7 µM

## CC[C@H](C(=O)N1CCCC[C@H]1C(=O)O[C@H](CCc1ccc(OC)c(OC)c1)c1cccc(OCC(=O)NCCNC(=O)COc2cccc([C@@H](CCc3ccc(OC)c(OC)c3)OC(=O)[C@@H]3CCCCN3C(=O)[C@@H](CC)c3cc(OC)c(OC)c(OC)c3)c2)c1)c1cc(OC)c(OC)c(OC)c1 [AP1093]
NK92^CIRB21-icasp9 cells; 10 nM AP1093, FIG. 9A
  viability of NK92^CIRB21-icasp9 cells in the presence of AP1093: remained viable
NK92^CIRB21-icasp9 cells; 10 nM AP1093, after 5 days, GFP detection by immunofluorescence, FIG. 9B
  viability of NK92 cells expressing GFP and icasp9 in AP1093: viable in 10 nM of AP1093 even after 5 days

## IL2: immunostimulatory cytokine
[3]
  half-life of IL2 in vivo: less than 10 min

B1: L-Holin: pore-forming holin protein from bacteriophage, SEQ ID NO: 1, expressed under a tetracycline regulated promoter (protein)
chain: MPEKHDLLAAILAAKEQGIGAILAFAMAYLRGRYNGGAFTKTVIDATMCAIIAWFIRDLLDFAGLSSNLAYITSVFIGYIGTDSIGSLIKRFAAKKAGVEDGRNQ
modifications: Enterobacteriaceae
NK92^CIRB cells [4]
  detectable cells after L-Holin induction and 13 days of growth in the absence of doxycycline: some NK92^CIRB cells survived and were detectable
NK92^CIRB21 cells [5]
  detectable cells after L-Holin induction and 13 days of growth in the absence of doxycycline: remained undetectable
NK92^CIRB21 cells [5]; listed as L-holin
  detectable cells after L-Holin induction and 13 days of growth in the absence of doxycycline: undetectable
Glioblastoma GL261 cells; GL261 cells, icasp9 Clone 2, 2 nM or 10 nM AP1903, FIGS. 7A-7B
  triggering of cell death compared with icasp9 expressed at low levels: more effective at triggering cell death than icasp9 expressed at low levels
Glioblastoma GL261 cells; GL261 clones with high (1, 5) and low (6, 9) L-Holin expression, doxycycline induced, FIG. 5A
  cell death as a result of L-Holin expression: majority, if not all, of GL261 cells died
